According to US20230203185A1 (ECO ANIMAL HEALTH, published 2023):
Positions count from the first letter of the chain named.

T1: native membrane bound porcine CD163 on primary porcine alveolar macrophages (porcine, UniProt Q2VL90 47-1115)
T1 construct: also called PAM CD163-WT; pPAM
T1 sequence: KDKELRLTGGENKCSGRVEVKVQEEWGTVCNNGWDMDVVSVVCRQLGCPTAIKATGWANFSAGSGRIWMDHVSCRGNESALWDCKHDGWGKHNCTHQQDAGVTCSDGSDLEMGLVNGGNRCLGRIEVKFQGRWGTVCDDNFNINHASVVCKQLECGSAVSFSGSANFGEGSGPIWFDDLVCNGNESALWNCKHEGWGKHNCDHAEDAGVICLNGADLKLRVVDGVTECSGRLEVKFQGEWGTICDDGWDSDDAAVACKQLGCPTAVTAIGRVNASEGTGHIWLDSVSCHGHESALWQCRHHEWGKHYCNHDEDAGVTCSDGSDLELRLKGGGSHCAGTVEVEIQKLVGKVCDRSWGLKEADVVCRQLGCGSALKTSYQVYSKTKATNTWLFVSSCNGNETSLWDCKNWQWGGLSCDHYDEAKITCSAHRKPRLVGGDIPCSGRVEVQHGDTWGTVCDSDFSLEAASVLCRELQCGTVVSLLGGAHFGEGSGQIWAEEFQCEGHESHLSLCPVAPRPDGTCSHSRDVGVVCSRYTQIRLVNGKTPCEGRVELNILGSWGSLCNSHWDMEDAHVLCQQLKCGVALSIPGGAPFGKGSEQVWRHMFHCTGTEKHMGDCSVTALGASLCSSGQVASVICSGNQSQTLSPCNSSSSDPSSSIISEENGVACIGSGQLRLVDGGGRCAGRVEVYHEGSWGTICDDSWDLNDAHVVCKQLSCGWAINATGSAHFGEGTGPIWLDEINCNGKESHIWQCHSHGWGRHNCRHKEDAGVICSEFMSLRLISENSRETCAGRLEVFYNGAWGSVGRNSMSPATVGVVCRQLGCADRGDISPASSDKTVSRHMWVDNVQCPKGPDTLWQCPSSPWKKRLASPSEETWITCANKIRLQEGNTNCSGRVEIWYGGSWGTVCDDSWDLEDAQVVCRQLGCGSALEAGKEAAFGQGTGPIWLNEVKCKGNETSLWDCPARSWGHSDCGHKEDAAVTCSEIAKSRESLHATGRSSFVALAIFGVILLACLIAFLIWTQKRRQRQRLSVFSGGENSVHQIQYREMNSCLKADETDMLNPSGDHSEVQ

T2: pCD163-SRCR1-9-huFc (porcine, UniProt Q2VL90 47-1028, limits assumed)
T2 construct: also called pCD163:SRCR1-9-Fc; pCD163SRCR1-9-Fc; not shown: human Fc (huFc)
T2 sequence: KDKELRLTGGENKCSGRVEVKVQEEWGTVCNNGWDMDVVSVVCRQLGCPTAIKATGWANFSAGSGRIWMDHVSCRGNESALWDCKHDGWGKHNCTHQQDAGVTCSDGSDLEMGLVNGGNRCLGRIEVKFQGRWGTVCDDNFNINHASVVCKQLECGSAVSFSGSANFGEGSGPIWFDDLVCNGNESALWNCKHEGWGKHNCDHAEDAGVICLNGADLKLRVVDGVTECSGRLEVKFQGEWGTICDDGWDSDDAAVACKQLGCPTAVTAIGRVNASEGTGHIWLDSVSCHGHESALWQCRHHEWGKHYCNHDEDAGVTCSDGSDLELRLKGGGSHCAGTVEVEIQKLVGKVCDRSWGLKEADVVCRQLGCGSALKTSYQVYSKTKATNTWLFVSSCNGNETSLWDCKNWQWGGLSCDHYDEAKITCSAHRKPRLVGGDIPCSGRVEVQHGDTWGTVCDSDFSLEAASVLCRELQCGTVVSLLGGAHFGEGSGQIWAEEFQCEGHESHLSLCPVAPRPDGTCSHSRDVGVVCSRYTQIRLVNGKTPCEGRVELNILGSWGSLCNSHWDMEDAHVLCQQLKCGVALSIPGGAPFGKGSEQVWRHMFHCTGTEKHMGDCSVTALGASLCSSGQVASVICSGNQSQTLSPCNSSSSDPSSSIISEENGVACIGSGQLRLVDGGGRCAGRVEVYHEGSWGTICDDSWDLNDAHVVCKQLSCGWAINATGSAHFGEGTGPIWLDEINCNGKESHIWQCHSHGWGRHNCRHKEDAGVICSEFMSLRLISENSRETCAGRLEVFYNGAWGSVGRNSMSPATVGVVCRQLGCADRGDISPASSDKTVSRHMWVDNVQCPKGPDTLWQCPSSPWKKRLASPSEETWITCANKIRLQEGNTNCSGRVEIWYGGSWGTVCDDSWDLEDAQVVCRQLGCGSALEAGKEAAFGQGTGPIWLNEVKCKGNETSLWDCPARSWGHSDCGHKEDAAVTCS

B1: VHH 015 (2G01) (VHH)
VHH: QVQLVESGGGLVQAGDTLRLSCTASGRTFSSYSMGWFRQAPGKEREFVAAITWNGYITNYADSVKGRFTISRDNTKNTVFLQMNSLKPEETAVYYCAATTFSTTSPISRTYNYWGPGTQVTVSS
notes: Llama single domain antibody; also called 150(#15); VHCDR3 150(#15); not shown: tags: c-myc tag in periplasmic extract (ELISA, FACS); FLAG and His tags in purified VHH (SPR, infection assays)
B2: VHH 002 (1B04) (VHH)
VHH: QVQLVESGGGLVQAGGSLRLSCAASGLTFVTYSMGWFRQAPGKEREFVAAHRWSGSAYYAEHADSVEGRFTISRDYAKNMLYLQMNSLKHEDTAVYYCAAGVGSAAQYRYWGRGTQVTVSS
notes: Llama single domain antibody; also called 76(#2); VHCDR3 76(#2); not shown: tags: c-myc tag in periplasmic extract (ELISA, FACS); FLAG and His tags in purified VHH (SPR, infection assays)
B3: VHH 008 (1H01) (VHH)
VHH: B2 VHH with L27R, V30G, A105E
notes: Llama single domain antibody; also called 78(#8); VHCDR3 78(#8); not shown: tags: c-myc tag in periplasmic extract (ELISA, FACS); FLAG and His tags in purified VHH (SPR, infection assays)
B4: VHH 016 (2H11) (VHH)
VHH: EVQLVESGGGLVQAGGSLRLSCAASGRTFAPGSMGWFRQAPGKEREFVAAHRWSGSAYYADYADSVEGRFTISRDYAKNMVYLQMNSLKPGDTAVYYCAAGVGSAAQYTYWGRGTQVTVSS
notes: Llama single domain antibody; also called 77(#16); VHCDR3 77(#16); not shown: tags: c-myc tag in periplasmic extract (ELISA, FACS); FLAG and His tags in purified VHH (SPR, infection assays)
B5: VHH 018 (3E01) (VHH)
VHH: QVQLQESGGGLVQVGGSLRLSCVASGRAPSRYVMGWFRQAPGQEREFVAGIAWSGRAPYADSVKGRSTISRDNAKNTVYLQMNSLKPEDTGVYYCAGGEGAIRWTTLDAYDYWGQGTQVTVSS
notes: Llama single domain antibody; also called 49(#18); VHCDR3 49(#18); not shown: tags: c-myc tag in periplasmic extract (ELISA, FACS); FLAG and His tags in purified VHH (SPR, infection assays)
B6: VHH 019 (3E11) (VHH)
VHH: B5 VHH with G16S, A24T, A28T, G50A, A52S, S67F, R103K
notes: Llama single domain antibody; also called 47(#19); VHCDR3 47(#19); not shown: tags: c-myc tag in periplasmic extract (ELISA, FACS); FLAG and His tags in purified VHH (SPR, infection assays)
B7: VHH 020 (3H11) (VHH)
VHH: B5 VHH with A28T, S67F, T68V, N73S, P87S, R103L, L107P, D108G, D111N
notes: Llama single domain antibody; also called 48(#20); VHCDR3 48(#20); not shown: tags: c-myc tag in periplasmic extract (ELISA, FACS); FLAG and His tags in purified VHH (SPR, infection assays)
B8: VHH 023 (4E10) (VHH)
VHH: QVQLVESGGGLVQAGGSLRLSCVASSRTSSTYAMGWFRQGPGKERDFVAIISFGGTFYADSVKGRFTISRDNAKNTVYLQMNSLKPEDTAVYYCAAGRTLSKRADSYASWGQGTQVTVSS
notes: Llama single domain antibody; also called 70(#23); VHCDR3 70(#23); not shown: tags: c-myc tag in periplasmic extract (ELISA, FACS); FLAG and His tags in purified VHH (SPR, infection assays)
B9: VHH 001 (1B02) (VHH)
VHH: EVQLVESGGGLVQAGGSLSLSCAASGGTLAMYAMSWFRQAPGKDRKFVAAINTSGRYSRYADSVKGRFTISRDNAKNTATLQMNSLEPEDTAVYYCAATDKGNWALAMSYDYWGQGTQVTVSS
notes: Llama single domain antibody; also called 144(#1); VHCDR3 144(#1); not shown: tags: c-myc tag in periplasmic extract (ELISA, FACS); FLAG and His tags in purified VHH (SPR, infection assays)
B10: VHH 011 (2B06) (VHH)
VHH: EVQLVESGGGLVQAGGSLRLSCAASGRTLSVYGTGWFRQAPGKEREFVAGISGTTGSTLYADSVKGRFTISRDNAKNTVYLQMNSLKSEDTALYYCAAGGRVYITTSSWAYWGQGTQVTVSS
notes: Llama single domain antibody; also called 57(#11); VHCDR3 57(#11); not shown: tags: c-myc tag in periplasmic extract (ELISA, FACS); FLAG and His tags in purified VHH (SPR, infection assays)
B11: VHH 012 (2C07) (VHH)
VHH: QLQLVESGGGLVQAGGSLRLSCVASGRTFSRYAMGWFRQAPGKEREFVAAIAWSTGSTYYANSVKGRFAISGDNAKNTVYLQMNSLKPEDTAVYYCAAETRYCSGFGCLDPRTYGSWGQGTQVTVSS
notes: Llama single domain antibody; also called 41(#12); VHCDR3 41(#12); not shown: tags: c-myc tag in periplasmic extract (ELISA, FACS); FLAG and His tags in purified VHH (SPR, infection assays)
B12: VHH 017 (3D03) (VHH)
VHH: QLQLVESGGGLVQPGGSLRLSCAASGFTLDDYTIGWFRQAPGKEREGVSCINSITSNTYYADSVKGRFTISRDNAKNTVYLQMNSLTAEDTAIYYCAADSGLFSGSSCLKYRAMRFGSWGQGTQVTVSS
notes: Llama single domain antibody; also called 29(#17); VHCDR3 29(#17); not shown: tags: c-myc tag in periplasmic extract (ELISA, FACS); FLAG and His tags in purified VHH (SPR, infection assays)

Experiments:
[1] = biological target: T1, native membrane bound porcine CD163 on …; test: flow cytometry, PAM CD163-WT, 4C
Description: Periplasmic Extract (P.E) from the selected clones were incubated with anti-c-myc antibody (Roche; Cat. nr. 11667203001), specific to the c-myc tag present in the soluble VHH, for 30 minutes with agitation at room temperature (RT). The mix (P.E + anti-c-myc antibody) was added to the pPAM or pPAMΔ5 domain (cells with deletion of SRCR domain 5) and incubated for 60 min at 4° C. with gentle shaking.
Cells were washed 3x with 150 µl/well of FACS Buffer and incubated with 50 µl/well of the secondary antibody GAM-APC for 30 min at 4° C. and protected from the light, with shaking.

pCD163-SRCR1-9-huFc = biological target: T2, pCD163-SRCR1-9-huFc; test: ELISA, periplasmic extract on coated antigen
pCD163-SRCR4-7-huFc = biological target: T3, pCD163-SRCR4-7-huFc (porcine, UniProt Q2VL90 372-818, limits assumed); test: ELISA, periplasmic extract on coated antigen
T3 construct: also called pCD163:SRCR4-7-Fc; pCD163-SRCR4-7-Fc; not shown: human Fc (huFc)

Row | Binder | % Binding [1] [%] | MFI [1] [MFI] | O.D. 450 (pCD163-SRCR1-9-huFc) [O.D. 450] | O.D. 450 (pCD163-SRCR4-7-huFc) [O.D. 450]
1 | B1 | 81.5 | 6220 | 1.18 | 4.37
2 | B2 | 31.8 | 1980 | 0.235 | 2.39
3 | B3 | 38.8 | 2370 | 0.22 | 2.65
4 | B4 | 61 | 3210 | 0.263 | 4.15
5 | B5 | 80.1 | 5210 | 1.03 | 0.938
6 | B6 | 93.8 | 12500 | 2.48 | 2.43
7 | B7 | 95.5 | 14000 | 2.93 | 3.36
8 | B8 | 8.75 | 1390 | 0.577 | 4.1
9 | B9 | 0.97 | 742 | 0.109 | 0.416
10 | B10 | 74.1 | 4270 | 0.106 | 0.288
11 | B11 | 97.9 | 26500 | 0.535 | 3.14
12 | B12 | 95.3 | 13500 | 0.137 | 0.116
